# Test results published in patent US20240343798A1 (GV20 THERAPEUTICS, published 2024).
# T1: recombinant human IGSF8 extracellular domain tagged by a human Fc region (IGSF8-hFc) (human, UniProt Q969P0 28-579)
# T1 construct: extracellular domain; also called IGSF8-Fc; IGSF8 hFc fusion protein; not shown: human Fc region
# T1 sequence (looked up): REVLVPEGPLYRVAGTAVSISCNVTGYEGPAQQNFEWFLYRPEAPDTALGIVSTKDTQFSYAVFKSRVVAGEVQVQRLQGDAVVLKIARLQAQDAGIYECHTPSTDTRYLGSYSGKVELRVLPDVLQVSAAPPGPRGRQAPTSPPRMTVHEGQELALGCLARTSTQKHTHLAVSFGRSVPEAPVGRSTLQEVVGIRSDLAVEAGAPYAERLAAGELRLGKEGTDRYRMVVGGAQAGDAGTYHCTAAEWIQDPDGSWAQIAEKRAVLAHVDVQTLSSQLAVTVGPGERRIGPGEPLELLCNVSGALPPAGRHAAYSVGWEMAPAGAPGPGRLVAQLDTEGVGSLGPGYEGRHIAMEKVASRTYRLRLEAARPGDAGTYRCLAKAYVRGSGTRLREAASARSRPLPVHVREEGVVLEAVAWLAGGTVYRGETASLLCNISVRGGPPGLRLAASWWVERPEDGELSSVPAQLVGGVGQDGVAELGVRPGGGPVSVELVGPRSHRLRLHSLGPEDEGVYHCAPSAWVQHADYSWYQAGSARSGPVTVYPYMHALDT
# T2: IGSF8 protein without D1 domain (UniProt Q969P0 150-579, limits assumed)
# T2 construct: domain: D2-D4 (without D1); also called D24; D2-4
# T2 sequence (looked up): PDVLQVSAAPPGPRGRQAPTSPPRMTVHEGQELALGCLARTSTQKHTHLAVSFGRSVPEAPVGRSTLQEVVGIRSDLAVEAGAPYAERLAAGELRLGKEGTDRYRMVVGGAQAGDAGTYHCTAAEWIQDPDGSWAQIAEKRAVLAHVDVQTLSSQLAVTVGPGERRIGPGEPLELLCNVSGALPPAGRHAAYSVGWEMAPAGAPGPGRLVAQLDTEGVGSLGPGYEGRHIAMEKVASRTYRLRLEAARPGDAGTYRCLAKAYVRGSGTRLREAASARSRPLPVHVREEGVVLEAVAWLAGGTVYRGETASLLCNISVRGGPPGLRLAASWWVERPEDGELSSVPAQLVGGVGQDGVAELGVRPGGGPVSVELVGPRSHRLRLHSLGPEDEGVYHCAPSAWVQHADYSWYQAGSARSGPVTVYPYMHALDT
# T3: human IGSF8 expressed on the cell surface (human, UniProt Q969P0 28-613)
# T3 construct: whole, on cells; Forced expression on CT26, MC38 or K562 cells; endogenous on A431 cells; also called full-length IGSF8
# T3 sequence (looked up): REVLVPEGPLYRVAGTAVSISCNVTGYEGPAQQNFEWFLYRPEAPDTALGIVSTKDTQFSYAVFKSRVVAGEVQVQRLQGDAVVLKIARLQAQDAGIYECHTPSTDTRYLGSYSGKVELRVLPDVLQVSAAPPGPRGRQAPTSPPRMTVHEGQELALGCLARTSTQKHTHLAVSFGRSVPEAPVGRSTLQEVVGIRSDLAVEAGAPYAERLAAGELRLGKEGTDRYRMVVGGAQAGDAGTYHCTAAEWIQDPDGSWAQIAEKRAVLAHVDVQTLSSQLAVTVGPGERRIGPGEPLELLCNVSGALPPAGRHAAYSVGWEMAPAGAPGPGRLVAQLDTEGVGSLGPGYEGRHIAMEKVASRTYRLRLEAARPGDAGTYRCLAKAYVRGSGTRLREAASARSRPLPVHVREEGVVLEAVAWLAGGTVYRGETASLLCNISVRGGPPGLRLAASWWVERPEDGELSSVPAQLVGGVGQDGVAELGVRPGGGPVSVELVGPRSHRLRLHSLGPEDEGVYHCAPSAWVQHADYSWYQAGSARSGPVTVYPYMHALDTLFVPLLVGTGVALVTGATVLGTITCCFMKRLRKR
# B1: KLRC1/KLRD1 heterodimeric receptor (receptor)
# chain 1: not shown
# chain 2: MAVFKTTLWRLISGTLGIICLSLMSTLGILLKNSFTKLSIEPAFTPGPNIELQKDSDCCSCQEKWVGYRCNCYFISSEQKTWNESRHLCASQKSSLLQLQNTDELDFMSSSQQFYWIGLSYSEEHTAWLWENGSALSQYLFPSFETFNTKNCIAYNPNGNALDESCEDKNRYICKQQLI
# notes: whole, on cells; CT26 cells co-transduced with both lentiviral constructs; also called KLRC1&D1 heterodimer; KLRC1/D1
# Key:
# [1] = target: T1, recombinant human IGSF8 extracellular …; assay: flow cytometry, IGSF8-hFc on CT26 cells with single-domain KIR3DL1/2 constructs, MFI normalized to Thy1.1
# [2] = target: T4, KIR3DL1 (human, UniProt P43629 22-444); assay: flow cytometry, hFc fusion proteins on transduced CT26 cells, MFI normalized
# T4 construct: whole, on cells; On mouse CT26 cells, lentiviral vector with a thy1.1 tag; also called KIR3DL1/2
# T4 sequence (P43629 22-444): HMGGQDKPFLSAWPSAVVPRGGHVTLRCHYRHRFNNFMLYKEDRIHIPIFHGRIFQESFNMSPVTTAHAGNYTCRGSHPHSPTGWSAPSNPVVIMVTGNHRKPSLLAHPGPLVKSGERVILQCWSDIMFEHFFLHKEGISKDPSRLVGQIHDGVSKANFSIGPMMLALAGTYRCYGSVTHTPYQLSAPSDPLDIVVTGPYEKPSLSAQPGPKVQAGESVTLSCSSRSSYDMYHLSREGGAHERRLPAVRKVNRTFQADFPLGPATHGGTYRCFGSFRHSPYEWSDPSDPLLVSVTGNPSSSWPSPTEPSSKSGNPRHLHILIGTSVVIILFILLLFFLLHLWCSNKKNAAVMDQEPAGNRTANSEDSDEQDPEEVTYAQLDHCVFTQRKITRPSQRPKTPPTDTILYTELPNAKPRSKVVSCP
# Protocol: (§1) For this experiment, different human KIR receptors (KIR2DL1, KIR2DL2, KIR2DL3, KIR2DL4, KIR2DL5A, KIR2DL5B, KIR3DL1, KIR3DL2, KIR3DL3) were first cloned into a proprietary lentiviral vector containing a thy1.1 tag (FIG. 17A). Then mouse CT26 cells, were transducted by these lentiviral constructs, and IGSF8 binding was tested with biotin-labelled recombinant IGSF8 hFc fusion protein. The mean fluorescence intensity (MFI) of IGSF8 binding to different CT26 cells were normalized by the expression of different KIRs on CT26 cells using an anti-thy1.1 mAb (Biolegend) via flow cytometry.
# (§2) KLRC1 also contains a ITIM motif in its intracellular domain, and was known to be a inhibitory receptor of NK or CD8⁺ T cells as part of a heterodimer with KLRD1 on the cell surface. […] Specifically, 100,000 CT26 cells overexpressing the antigens (KIRs or KLRs) were washed with PBS buffer containing 2% FBS, and incubated with 100 μL IGSF8 recombinant proteins or antibodies (5 μg/mL) for 30 minutes on ice. Cells were then washed twice with wash buffer, and incubated with 100 μL of 1:100 anti-human Fc-PE antibody for 15 minutes on ice. Cells were washed twice with wash buffer and analyzed on a FACS analyzer (CytoFlex, Beckman). In these experiments, the mean fluorescence intensity (MFI) of IGSF8 binding to different CT26 cells were normalized by the expression of different KLRs on CT26 cells using an anti-thy1.1 mAb via flow cytometry.
# [3] = target: T5, KIR3DL2 (human, UniProt P43630 22-455); assay: as above
# T5 construct: whole, on cells; On mouse CT26 cells, lentiviral vector with a thy1.1 tag; also called KIR3DL1/2
# T5 sequence (P43630 22-455): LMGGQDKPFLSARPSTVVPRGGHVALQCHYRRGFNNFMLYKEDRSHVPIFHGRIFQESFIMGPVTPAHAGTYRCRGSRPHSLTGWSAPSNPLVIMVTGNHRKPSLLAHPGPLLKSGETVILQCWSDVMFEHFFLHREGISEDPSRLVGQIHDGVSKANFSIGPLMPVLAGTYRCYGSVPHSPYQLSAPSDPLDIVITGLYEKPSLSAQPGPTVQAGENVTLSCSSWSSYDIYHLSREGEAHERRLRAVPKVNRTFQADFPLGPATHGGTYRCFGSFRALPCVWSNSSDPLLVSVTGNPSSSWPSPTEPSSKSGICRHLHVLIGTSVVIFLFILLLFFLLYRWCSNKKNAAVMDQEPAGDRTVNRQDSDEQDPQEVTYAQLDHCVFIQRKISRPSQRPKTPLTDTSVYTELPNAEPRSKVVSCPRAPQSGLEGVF
# Protocol: as §1, §2
# [4] = target: B1; assay: as above
# Protocol: as §1, §2
# [5] = target: T2, IGSF8 protein without D1 domain; assay: flow cytometry, CT26 cells expressing IGSF8-D24 (IGSF8 without D1)
# [6] = target: T3, human IGSF8 expressed on the cell …; assay: cell-cell conjugate assay, labelled MC38 and CT26 cells mixed 1:1, flow cytometry
# Text: A competition assay (FIG. 23A) was then designed to test whether these seven mAbs block IGSF8 binding to the KIR3DL1/2 or the KLRC1&D1 heterodimer receptors. MC38 cells (a cell line derived from C57BL6 murine colon adenocarcinoma cells from NIH) with forced expression of IGSF8 protein on cell surface by lentiviral delivery of a human IGSF8-expression construct were labeled with CFSE (Carboxyfluorescein succinimidyi ester, Thermo). CT26 cells with forced expression of either KIR3DL1/2 or KLRC1&D1 were labeled with CellTrace Far Red (Thermo). The MC38 cells were then mixed at a 1:1 ratio with the CT26 cells for about an hour at room temperature. The formation of MC38 and CT26 cell/cell conjugates was assessed by flow cytometry.
# [7] = target: T1, recombinant human IGSF8 extracellular …; assay: flow cytometry, IGSF8-hFc on transduced CT26 cells, MFI normalized to Thy1.1 expression
# Protocol: as §2
binder,measurement,setting,value
"KIR3DL2 D3 construct (receptor, human, UniProt P43630 222-316, looked up, domain: D3; On CT26 cells, thy1.1 tag vector; also called D1/D3 construct) EKPSLSAQPGPTVQAGENVTLSCSSWSSYDIYHLSREGEAHERRLRAVPKVNRTFQADFPLGPATHGGTYRCFGSFRALPCVWSNSSDPLLVSVT",binding result,[1],no binding
"D1 domain of IGSF8 protein (ligand, UniProt Q969P0 28-149, looked up, domain: D1; also called D1 (Ig-V set) ECD of IGSF8) REVLVPEGPLYRVAGTAVSISCNVTGYEGPAQQNFEWFLYRPEAPDTALGIVSTKDTQFSYAVFKSRVVAGEVQVQRLQGDAVVLKIARLQAQDAGIYECHTPSTDTRYLGSYSGKVELRVL",binding result,[2],binds
same,binding result,[3],binds
same,binding result,[4],binds
"Antibody C30 (B34) (antibody, human IgG1, V domains shown, Fully human, expressed in CHO cells; also called mAb-B34 (C30)) VH: EVQLLESGGGLVQPGGSLRLSCAASGFTFSSYAMSWVRQAPGKGLEWVSGITGSGGSTYYADSVKGRFTISRDNSKNTLYLQMNSLRAEDTAVYYCARGRQVDKWGQGTLVTVSS VL: DIMLTQSPSSLSASVGDRVTITCRASQSIHNYLNWIQQTPGKAPKLLVFAASTLQRGVPPRYSGRGSGTEFTLTISSLQPEDFATYYCQQSYTTPLTFGGGTKVEIRR",binding result,[5],no binding
B1,binding result,[6],binds
same,binding result,[7],binds
"KIR3DL1 D3 construct (receptor, human, UniProt P43629 222-316, looked up, domain: D3; On CT26 cells, thy1.1 tag vector; also called D1/D3 construct) EKPSLSAQPGPKVQAGESVTLSCSSRSSYDMYHLSREGGAHERRLPAVRKVNRTFQADFPLGPATHGGTYRCFGSFRHSPYEWSDPSDPLLVSVT",binding result,[1],no binding
